Assay results: patent publication US20230331821A1
Where two headings read alike, the source gives them in different places.

How the values were obtained:
Conditions in all cases: remark: other sources report otherwise
[1] = target: T1, SARS-CoV-2 Spike (S) protein, strain BetaCoV/Wuhan-Hu-1/2019, full length (SARS-CoV-2 Wuhan-Hu-1), P0DTC2
[2] = target: T1, SARS-CoV-2 Spike (S) protein, strain …; experiment: flow cytometry, ExpiCHO cells transfected with SARS-CoV-2 S; MFI (AF647)
[3] = target: T1, SARS-CoV-2 Spike (S) protein, strain …; experiment: flow cytometry, ExpiCHO cells expressing SARS-CoV-2 S; % positive cells
[4] = target: T1, SARS-CoV-2 Spike (S) protein, strain …; remark: listed apart in the source

Binder | EC50 (read off the curve) [1] [µg/mL] | EC50 (read off the curve) [2] [µg/mL] | EC50 (read off the curve) [3] [µg/mL] | POS [4]
S306 (antibody) heavy: QVQLVQSGAEVKKPGASVKVSCKASTYTFTSFGISWVRQAPGQGLEWMGWITTYSGDTNYAQKFQGRVTMTTDTSTNTAYMELRSLRSDDTAVYYCASDYFDSSGYYHSFDYWGQGTLVTVSS light: EIVLTQSPDTLSLSPGERATLSCRASQSVSSYLAWYQQRPGQAPRLLIYDASKRATGIPARFSGSGSGTDFTLTISSLEPEDFAVYYCQQRSNWPPGCSFGQGTKVEIK | 0.2 | 0.2 | 0.001 | 
SARS-CoV-2 S306 mAb (B cell supernatant) (antibody, V domains shown) VH: QVQLVQSGAEVKKPGASVKVSCKASTYTFTSFGISWVRQAPGQGLEWMGWITTYSGDTNYAQKFQGRVTMTTDTSTNTAYMELRSLRSDDTAVYYCASDYFDSSGYYHSFDYWGQGTLVTVSS VL: EIVLTQSPDTLSLSPGERATLSCRASQSVSSYLAWYQQRPGQAPRLLIYDASKRATGIPARFSGSGSGTDFTLTISSLEPEDFAVYYCQQRSNWPPGCSFGQGTKVEIK |  |  |  | 57.6
